# From PMC10460880, “Cathepsin K‐Activated Probe for Fluoro‐Photoacoustic Imaging of Early Osteolytic Metastasis” (Advanced Science, 2023)
# Experiments:
# [1] = Fluorescence quantum yield and molar extinction coefficient; assay type: physicochemical; settings: MES buffer 50 mM pH 6.0, 0.1% DMSO
# Description: Determination of the fluorescence quantum yield and molar extinction coefficient.
# Fluorescence quantum yield (Φf) was determined by using ICG (Φf = 0.13 in DMSO) as a fluorescence standard. The quantum yield was calculated using the following equation: ΦF(X) = ΦF(S) (ASFX / AXFS) (nX / nS)2, Where ΦF is the fluorescence quantum yield, A is the absorbance at the excitation wavelength, F is the area under the corrected emission curve, and n is the refractive index of the solvents used. Subscripts S and X refer to the standard and to the unknown, respectively. The excitation wavelength was at 690 nm while keeping the absorption below 0.05. To calculate the molar extinction coefficient (ε), the absorption at 690 nm of different concentrations of the CTSK-APPA before or after CTSK cleavage (0, 0.5, 1, 2, 5, 10 μM) was measured. According to the Lambert-Beer law, the extinction coefficient was the slope of the fitted curve between concentration and absorption. Both fluorescence quantum yield and extinction coefficient were measured in MES buffer (50 mM, pH 6.0) containing 0.1% DMSO. […]
# [2] = Hydroxyapatite (HA) adsorption assay (in vitro bone binding); settings: probe 10 μM, HA 10 mg/mL, 37 °C, fluorescence of precipitate
# Description: In Vitro bone-binding and CTSK activation assay. Hydroxyapatite (HA) was used as a substitute for bone in vitro to evaluate the bone-binding ability of CTSK-APPA and CTSK-APP. CTSK-APPA or CTSK-APP (10 μM) was mildly stirred with HA (10 mg/mL) at 37 °C for different times (0, 10, 30, 60, and 120 min). The mixture was centrifugated at 4000 g for 5 min and then washed with a 10-fold excess of PBS (1×) three times. The efficiency of HA binding was determined from the fluorescence intensities of the precipitation according to the equation: (F – Fblank)/(F0 – Fblank)*100%, where F represents the fluorescence intensity of the precipitation incubated with HA for a determined time, and Fblank represents the blank fluorescence intensity. […]
# cathepsin K (CTSK) = biological target: T1, cathepsin K (CTSK) (Homo sapiens, UniProt P43235); test: In vitro CTSK activation of probes (UV-vis, fluorescence, PA); assay type: biochemical
# T1 sequence (P43235 115-329): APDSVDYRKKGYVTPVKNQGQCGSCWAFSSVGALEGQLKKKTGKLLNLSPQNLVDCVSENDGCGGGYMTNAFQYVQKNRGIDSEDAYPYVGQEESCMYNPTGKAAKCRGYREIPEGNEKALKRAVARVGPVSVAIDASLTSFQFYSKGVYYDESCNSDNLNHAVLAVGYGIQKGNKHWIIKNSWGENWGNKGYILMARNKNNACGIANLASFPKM
# Description: radiography (DR), and fluorescence imaging were carried out by using an IVIS Spectrum imaging system (PerkinElmer). Photoacoustic (PA) imaging was obtained on a multispectral optoacoustic tomography (MSOT) scanner (iThera Medical). Computed tomography (CT) imaging was recorded on single-photon emission computed tomography imaging system (Olympus). Magnetic resonance (MR) imaging was recorded on a preclinical magnetic resonance solution system (MR solutions).
# In vitro analysis of cathepsin K (CTSK) activation, selectivity, and sensitivity studies.
# Probe CTSK-APPA, D-CTSK-APPA, or CTSK-APP (10 μM) was incubated with CTSK in MES buffer (50 mM, pH 6.0) containing 0.1% DMSO, 2 mM ethylene diamine tetraacetic acid (EDTA), 4 mM dithiothreitol (DTT) and 0.15% chondroitin sulfate (CS) at 37 °C for 1 h. After incubation at the indicated time, UV-Vis spectra, fluorescence spectra, fluorescence images, and PA images of the solutions were recorded. Probe CyP (10 μM) incubated with CTSK (200 ng/mL) for 1 h was further analyzed by HPLC. For selectivity study, CTSK-APPA (10 μM) in a 96-well plate was incubated with CTSK (100 ng/mL), CTSB (100 ng/mL), FAP-α (9×10-4 U/mL), Caspase-3 (100 ng/mL), APN (100 ng/mL), GGT (0.1 U/mL), ALP (0.1 U/mL), ACE (1×10-3 U/mL), and trypsin (10 U/L) at […] for 1 h. […] The limit of detection was determined from emission intensities according to the equation: 3δ/k, where δ represents the standard deviation of blank, and k represents the slope of the fitting plot of emission intensities. Fluorescence images were captured by using the IVIS Spectrum imaging system with excitation at 660 ± 10 nm and emission at 710 ± 10 nm. […]
# Kinetic assay. […] Fluorescence intensities of solution were measured for quantification analyses by a microplate reader (BioTek, Synergy 2) with excitation at 690 nm and emission at 720 nm. The kinetic parameters were calculated according to the Michaelis-Menten equation shown below: V = Vmax×[S]/(Km + [S]), where V is initial velocity, and [S] is substrate concentration. […]
substance,measurement,setting,value
Cbz‐Leu‐Arg‐OH [CTSK-APPA],fluorescence quantum yield (Φf) after CTSK cleavage,"[1]; ICG standard, Ex 690 nm",3.5%
same,fluorescence quantum yield (Φf) before CTSK cleavage,"[1]; ICG standard, Ex 690 nm",0.5%
same,molar extinction coefficient ε after CTSK cleavage,"[1]; absorption at 690 nm, 0-10 μM",50230 M⁻¹ cm⁻¹
same,molar extinction coefficient ε before CTSK cleavage,"[1]; absorption at 690 nm, 0-10 μM",28580 M⁻¹ cm⁻¹
same,HA-binding efficiency after 30 min,[2],approximately 96%
same,incubation time until absorption at 690 nm and fluorescence at 720 nm reach plateau,cathepsin K (CTSK); incubation with CTSK,≈ 60 min
same,fluorescence on/off ratio at 720 nm,"cathepsin K (CTSK); probe 10 μM + CTSK, MES buffer 50 mM pH 6.0, 0.1% DMSO, 37 °C, 1 h, Ex 690 nm, n = 3",~20.9
same,enhancement of photoacoustic signal,"cathepsin K (CTSK); probe 10 μM + CTSK, MES buffer pH 6.0, 37 °C, 1 h, irradiated at 700 nm, n = 3",5.2 fold
